According to patent US8263074B2, “Fibroblast growth factor receptor-1 inhibitors and methods of treatment thereof” (ImClone LLC, priority 2003, dated 2012):

Assays:
FGFR-1 = target: T1, FGFR-1 (Homo sapiens, UniProt P11362); test: Phosphorylation assay in FGFR-1 expressing L6 cells (western blot); type: cell-based; conditions: anti-phospho-tyrosine western blot
T1 construct: expressed in transfected cells; host or cells: L6 (ATCC), pBABE retroviral vector
Experimental: FGFR-1 expressing L6 cells were cultured in 10% FBS, DMEM, in a 24-well tissue culture plate till confluency. Cells were Serum starved in 5 μg/ml heparin, 0.1% FBS, DMEM, for 8-24 hrs. Either FR1-H7 or FR1-A1 was added to the media and allowed to bind with the cell surface receptors at 37° C. for 1 hr. Cells were then stimulated with 20 ng/ml FGFs at 37° C. for 10 min before they were lyzed using ice-cold lysis buffer for 30 min. Cell lysate was subjected to SDS-PAGE followed by western blot. Membranes were probed with anti-phospho-tyrosine antibody (Cell Signaling Technology, Inc., Beverly, Mass.) for detection of phosphorylated FGFR-1 receptors according to supplier's instructions.
The phosphorylation assay for small molecules is essentially the same as the phosphorylation assay described in Examples 7 and 15 and Phosphorylation Assay, except that small molecule compounds was used instead of FGFR-1 antibodies in all occasions. […] Equal amount of cell lysates were applied to each sample lane. Receptor auto-phosphorylation was probed using anti-phospho-tyrosine antibody as described in the original patent.

[1] = Repeated-dose study in female athymic nude mice: body weight, food intake, rearing, blood glucose; type: in vivo; conditions: day 64
other FGFRs = test: ELISA binding assay
Experimental: (§1) Recombinant FGFRs (R&D systems) at a concentration of 1 μg/ml in PBS were coated on 96-well plates at room temperature for 2 hrs. The plates were washed 3 times with 0.2% Tween20/PBS, and blocked with 5% milk/PBS for 2 hrs before use. FR1-H7 or FR1-A1 was added to the plate and serially diluted in 0.2% Tween20/PBS. The plate was incubated at room temperature for 2 more hrs. The captured antibodies were detected using an anti-human light chain monoclonal antibody conjugated with […] (Pierce Biotechnology, Rockford, Ill.) solution prepared according to supplier's instructions.

FGFR-1(IIIb) = target: T2, FGFR-1(IIIb) (Homo sapiens, UniProt P11362); test: ELISA binding assay
T2 construct: purchased R&D Systems
T2 sequence (P11362 22-822 isoform P11362-19 limits assumed): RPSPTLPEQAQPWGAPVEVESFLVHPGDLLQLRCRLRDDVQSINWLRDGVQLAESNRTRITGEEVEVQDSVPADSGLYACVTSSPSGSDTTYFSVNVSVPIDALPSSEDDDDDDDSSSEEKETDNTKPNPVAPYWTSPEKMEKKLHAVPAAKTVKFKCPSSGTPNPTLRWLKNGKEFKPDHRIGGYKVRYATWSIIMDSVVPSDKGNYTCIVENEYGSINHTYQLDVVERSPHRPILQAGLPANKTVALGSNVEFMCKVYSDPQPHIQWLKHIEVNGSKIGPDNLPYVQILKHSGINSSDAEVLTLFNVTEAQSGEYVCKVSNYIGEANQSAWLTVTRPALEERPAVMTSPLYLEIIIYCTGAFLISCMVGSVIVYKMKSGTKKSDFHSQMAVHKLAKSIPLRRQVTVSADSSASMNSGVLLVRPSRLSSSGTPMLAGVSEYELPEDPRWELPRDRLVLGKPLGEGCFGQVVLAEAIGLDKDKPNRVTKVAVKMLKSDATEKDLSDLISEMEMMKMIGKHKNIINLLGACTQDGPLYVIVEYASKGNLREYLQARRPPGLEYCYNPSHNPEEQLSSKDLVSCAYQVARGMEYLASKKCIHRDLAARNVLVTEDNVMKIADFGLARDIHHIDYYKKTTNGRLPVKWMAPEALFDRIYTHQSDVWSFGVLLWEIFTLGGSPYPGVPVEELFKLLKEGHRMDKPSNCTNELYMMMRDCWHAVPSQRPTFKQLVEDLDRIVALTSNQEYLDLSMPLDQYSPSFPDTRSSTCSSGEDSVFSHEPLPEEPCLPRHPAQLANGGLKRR
Experimental: as §1

FGFR-3b = target: T3, FGFR-3b (Homo sapiens, UniProt P22607); test: BiaCore binding kinetics; conditions: BiaCore kinetic analysis
T3 construct: purchased R&D Systems
T3 sequence (P22607 23-808 isoform P22607-2 limits assumed): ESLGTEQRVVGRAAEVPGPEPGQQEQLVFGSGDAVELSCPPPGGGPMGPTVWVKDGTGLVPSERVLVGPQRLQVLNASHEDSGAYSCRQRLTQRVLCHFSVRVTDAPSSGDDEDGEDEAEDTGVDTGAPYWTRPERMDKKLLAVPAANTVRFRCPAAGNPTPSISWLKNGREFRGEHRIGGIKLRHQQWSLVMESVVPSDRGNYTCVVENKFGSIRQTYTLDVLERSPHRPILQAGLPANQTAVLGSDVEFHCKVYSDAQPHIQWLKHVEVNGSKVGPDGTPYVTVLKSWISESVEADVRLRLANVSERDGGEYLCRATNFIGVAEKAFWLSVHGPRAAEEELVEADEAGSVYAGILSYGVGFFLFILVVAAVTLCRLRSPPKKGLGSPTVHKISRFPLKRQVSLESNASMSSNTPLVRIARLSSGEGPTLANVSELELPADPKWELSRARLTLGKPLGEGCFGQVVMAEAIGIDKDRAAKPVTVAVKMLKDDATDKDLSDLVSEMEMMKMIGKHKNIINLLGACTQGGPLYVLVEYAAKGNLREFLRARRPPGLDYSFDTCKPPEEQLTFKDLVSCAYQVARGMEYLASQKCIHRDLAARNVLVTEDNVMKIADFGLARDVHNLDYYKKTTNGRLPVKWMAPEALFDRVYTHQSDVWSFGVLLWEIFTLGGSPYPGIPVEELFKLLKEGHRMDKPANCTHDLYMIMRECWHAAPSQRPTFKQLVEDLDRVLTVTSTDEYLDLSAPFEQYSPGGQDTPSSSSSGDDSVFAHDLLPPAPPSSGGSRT

[2] = Repeated-dose study in female athymic nude mice: body weight, food intake, rearing, blood glucose; type: in vivo
Experimental: Female athymic nude mice (Cr1:NU/NU-nuBR, Charles River Laboratories, Wilmington, Mass.) were housed 4-5 per cage. Mice were given autoclaved food (Lab Diet #5001, PMI Feeds Inc., St. Louis, Mo.) and water ad libitum. All animal use in this study was conducted in compliance with approved institutional animal care and use protocols, and according to NIH guidelines (Guide for the Care and Use of Laboratory Animals, NIH publication no. 86-23, 1985).
In one assay, mice were injected intraperitoneally (i.p.) with FR1-H7 at 0.19, 1.9, and 19 mg/kg body weight (n=5 per group). In another assay, mice were injected subcutaneously (s.c.) with the antibody, at 0.4, 4, and 40 mg/kg body weight. In control arms, mice were treated with saline i.p. or s.c. In addition, one group of mice was left untreated (n=4). All treatments were given at a volume of 10 μl/g body weight in Saline. Treatments were started on a Wednesday (Day 0) with additional treatments on the following Friday, Monday, Wednesday, and Friday. After this 9-day treatment period mice received no additional treatments.
Alternatively, female athymic nude mice were injected (i.p.) with saline, 2 mg/kg, or 20 mg/kg FR1-A1 on a Monday (Day 0) and Wednesday. Body weights were measured before the first injection, and on Day 2 and Day 5. Food intake per group was measured 2 days after the first injection.
The body weights of all animals were measured 3 times/week. Food consumption, behavior, and serum glucose were evaluated as follows. Food Intake Measurement: Prior to the treatment on Day 2 mice were placed in a new cage and the weight of the food container in the cage top was weighed. Prior to the treatment on Day 5 the weight of the food container was measured again. The difference in the Day 2 to Day 5 food container weight was divided by the number of mice per cage and the number of days between the measurements to give a food intake per mouse per 24 hrs. Activity Measurement: On Day 12, 3 days after the final treatment, mice were placed individually into a new cage and the number of rearings was counted over a 1 min period. Blood Glucose Measurement On Day 16, 7 days after the final treatment, non-fasted blood glucose was measured in blood collected from the tip of the tail using an Ascensia Elite XL blood glucose meter (glucose oxidase method, Bayer, Pittsburg, Pa.).

FGFR-1(IIIc) = FGFR-1(IIIc) (Homo sapiens, UniProt P11362); test: ELISA binding assay; parameters: purchased R&D Systems
Sequence of FGFR-1(IIIc) (P11362 22-822): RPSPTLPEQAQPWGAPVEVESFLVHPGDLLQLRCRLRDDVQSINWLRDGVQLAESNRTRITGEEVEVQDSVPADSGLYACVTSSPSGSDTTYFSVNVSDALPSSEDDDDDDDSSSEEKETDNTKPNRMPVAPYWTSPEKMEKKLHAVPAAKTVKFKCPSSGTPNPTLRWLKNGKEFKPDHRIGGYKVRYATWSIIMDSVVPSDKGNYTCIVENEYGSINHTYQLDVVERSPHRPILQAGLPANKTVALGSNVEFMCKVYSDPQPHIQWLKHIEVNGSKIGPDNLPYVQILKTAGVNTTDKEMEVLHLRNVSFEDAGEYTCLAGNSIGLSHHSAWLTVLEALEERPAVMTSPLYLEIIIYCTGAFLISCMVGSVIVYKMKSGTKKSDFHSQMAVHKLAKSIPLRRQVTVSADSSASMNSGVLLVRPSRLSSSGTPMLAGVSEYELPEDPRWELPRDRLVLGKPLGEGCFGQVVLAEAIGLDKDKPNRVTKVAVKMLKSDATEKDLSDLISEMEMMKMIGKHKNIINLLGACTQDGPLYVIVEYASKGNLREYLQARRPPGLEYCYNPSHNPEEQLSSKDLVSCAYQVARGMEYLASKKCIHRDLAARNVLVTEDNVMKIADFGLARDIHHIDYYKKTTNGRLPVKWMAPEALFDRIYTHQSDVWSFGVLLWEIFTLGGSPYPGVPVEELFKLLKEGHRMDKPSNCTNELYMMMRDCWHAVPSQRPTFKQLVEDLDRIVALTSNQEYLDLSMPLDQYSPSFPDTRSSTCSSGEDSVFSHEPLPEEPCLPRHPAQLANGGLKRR
Experimental: as §1

[3] = Body weight in C57 black mice; type: in vivo; conditions: after 4 treatments
Experimental: The antibodies weight-reducing effects on other strains of mice, C57 black mice and db/db mice were tested (The Jackson Laboratory, Bar Harbor, Me.). The C57 mice were injected with 0.8 mg/kg, 4 mg/kg, and 40 mg/kg antibody and saline on a Monday, Wednesday, Friday, and following Monday rotation schedule with body weights being measured before each injection and on day 9.

T1 sequence (P11362 22-822): as above

B1: FR1-H7: human monoclonal antibody from phage Fab library, specific for FGFR-1(IIIb) and/or FGFR-1(IIIc), and/or FGFR-4(IIIc); VH/VL SEQ ID NOS:7, 8 (antibody, listed as Homo sapiens)
VH: MAEVQLVQSGAEVKKPGASVKVSCKVSGYTFTDYYMHWVQQAPGKGLEWMGLVDPEDGETIYAEKFQGRVTITADTSTDTAYMELSSLRSEDTAVYYCARDDYMDVWGKGTLVTVSSASTKGP
VL: LETTLTQSPDTLSLSPGEGATLSCRASQSVSGSALAWYQQKPGQAPRLLIYDASSRATGVPDRFSGSGSGADFSLTISRLEPEDFAVYSCQQYGSSPLTFGPGTKVDVKRTVAAPSVFIFPPSDEQLKSGTASVVCLLNNFYPREAKVQWKVD
inhibition of ligand (FGF) mediated receptor phosphorylation (FGFR-1; antibody): significantly inhibits
receptor activation by the antibody by itself (FGFR-1; no ligand): does not activate the receptor
non-fasted blood glucose after weight recovery [1]: restored to normal range
binding to the other FGFRs (other FGFRs): does not recognize
binding to FGFR-1(IIIb) (FGFR-1(IIIb)): strong affinities
Kd (FGFR-3b): > 1000 nM
moderate weight loss continued one week after treatment was stopped ([2]; 1.9 mg/kg): ~0.5 g
time to complete weight recovery after treatment was stopped ([2]; 1.9 mg/kg): 25 days
weight loss of the total body weight ([2]; 1.9 mg/kg i.p., within the first 3 treatments): ~20%
lagging time of first significant weight gain after stop of treatments ([2]; 4 mg/kg s.c.): 14 days
unusual weight loss of the total body weight, one animal euthanized ([2]; 19 mg/kg group): ~50%
lagging time of first significant weight gain after stop of treatments ([2]; 19 mg/kg i.p.): 24 days
reduction of non-fasting blood glucose as fraction of the normal glucose level ([2]; 19 mg/kg i.p. and 40 mg/kg s.c. groups, one week after end of treatment): ⅓
lagging time of first significant weight gain after stop of treatments ([2]; 40 mg/kg s.c.): 19 days
exploratory behavior (rearings per min in a novel environment) ([2]; Day 12): not significantly altered
maximal weight loss as fraction of the averaged body weight of the controls ([2]; dosage higher than 4 mg/kg): ⅓
reduction of non-fasting food intake ([2]; groups that lost weight, between second and third treatment): approximately 35%
body weight change ([2]; two lowest dosages 0.19 and 0.4 mg/kg): slight weight gains
binding to FGFR-1(IIIc) (FGFR-1(IIIc)): strong affinities
weight reduction compared to the starting weights ([3]; 0.8 mg/kg): approximately 5%
weight reduction compared to the starting weights ([3]; 4 mg/kg): ~16%
weight reduction compared to the starting weights ([3]; 40 mg/kg): ~16%
